This note sets out measurements from patent US20140378657A1.

The target in assay [1] is biotinylated maltose binding protein (MBP-AviTag fusion, Avidity, LLC) [MBP: P0AEX9]. The assay can be described thus: affinity column, elution with 5 mM d-biotin.
Assay [2] shares this target. The assay can be described thus: SPR (BIAcoreX), biotinylated MBP-AviTag as immobilised ligand.
Assay [3] shares this target. The assay can be described thus: SPR, biotinylated MBP row of Table 2; footnote: value determined by the surface plasmon resonance method described in Qureshi and Wong (2002).

Sequence of wild-type streptavidin (P22629 25-183 limits assumed): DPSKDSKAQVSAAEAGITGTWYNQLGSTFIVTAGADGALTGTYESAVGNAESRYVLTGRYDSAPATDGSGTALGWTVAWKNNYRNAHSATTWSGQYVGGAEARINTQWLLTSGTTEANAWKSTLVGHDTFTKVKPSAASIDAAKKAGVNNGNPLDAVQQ

In assay [1], “streptavidin mutein SBPM18 (S27A, G48T) (designed binder)” registered a recovery from affinity column of 90%. Moreover, in assay [2], the Kd amounted to 11.5 nM, the koff was 0.00265 s⁻¹ and the kon is 230000 M⁻¹ s⁻¹.

Substance “wild-type streptavidin (from UniProt P22629 25-183)” gave a kon in assay [3] of 5.13e+06 M⁻¹ s⁻¹.

For orientation: koff means a measure of how fast the partners let go of each other. In general, kon refers to the rate constant with which the complex forms. Read a low kon as slow association.
